{"source": "the RNAGym collection of RNA variant scans (doi:10.1073/pnas.2313332121)", "parents": {"B1": {"name": "TPR t1 (parent)", "chain": "GACCAAUCUGCCCUCAGAGCUCGAGAACAUCUUCGGAUGCAGAGGAGGCAGGCUUCGGUGGCGCGAUAGCGCCAACGUCCUCAACCUCCAAUGCAUCCCACCACAUGAUGAUGCCUGAAGAGCCUUGGUUUUUUG"}}, "data": [{"variants_of": "B1", "assay": "polymerase ribozyme fitness, log enrichment relative to wild type (log ratio); higher = more active; in vitro selection for triplet polymerase activity", "summary_of_the_method": "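Mutant libraries for each subunit of a heterodimeric triplet polymerase ribozyme were made by PCR and then transcribed. Each library underwent one round of in vitro selection in triplicate: annealing with a biotinylated primer, the partner subunit and triplets, frozen incubation at −7 °C, gel excision of extended constructs, streptavidin-bead capture and RT-PCR. Input and output libraries were Illumina-sequenced, and only genotypes with ≥10 input reads and ≥1 read per output were kept. Fitness is the logarithm, base 2, of genotype enrichment over wild-type enrichment, computed from inverse-variance-weighted replicate averages.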", "values": [{"variant": "GACCAAUCUGCCCUCAGAGCUCGAGAACAUCUUCGGCUGCAGAGGAGGCAGGCUUCGGUGGCGCGAUAGUGCCAACGUCCUCAACCUCCAAUGCAUCCCACCACAUGAUGAUGCCUGAAGAGCCUUGGUUUUUUG", "polymerase ribozyme fitness (log ratio)": -0.649}, {"variant": "GACCAAUCUGCCCUCAGAGCUCGAGAACAUCUUCGGCUGCAGAGGAGGCAGGCUUCGGUGGCGUGAUAGCGCCAACGUCCUCAACCACCAAUGCAUCCCACCACAUGAUGAUGCCUUAAGAGCCUUGGUUUUUUG", "polymerase ribozyme fitness (log ratio)": -3.55}, {"variant": "GACCAAUCUGCCCUCAGAGCUCGAGAACAUCUUCGGCUGCAGAGGAGGUAGGCUUCGGUGCCGCGAUAGCGCCAACGUCCUCAACCUCCAAUGCAUCCCACCACAUGAUGAUGCCUGAAGAGCCUUGGUUUUUUG", "polymerase ribozyme fitness (log ratio)": -3.38}, {"variant": "GACCAAUCUGCCCUCAGAGCUCGAGAACAUCUUCGUAUGCAGAGGAGGCAGGCUUCGGUGGCGCGAUAGCGCCAACGUCCUCAACCUCCAAUGCAUCCCACCACAGGAUGAUGCCUGAAGAGCCUUGGUUUUUUG", "polymerase ribozyme fitness (log ratio)": -4.55}, {"variant": "GACCAAUCUGCCCUCAGAGCUCGAGAACAUCUUCGGCUGCAGAGGAGGAAGGCUUCGGUGGCGCGAUAGCGCCAACGUCCUCAACCUCCAAUGCAUCCCACCAUAUGAUGAUGCCUGAAGAGCCGUGGUUUUUUG", "polymerase ribozyme fitness (log ratio)": -1.1}, {"variant": "GACCAAUCUGCCCUCAGAGCUCGAGAACAUCUUCGUAUGCAGAGGAGGCAGGCUUCGGUGGCGCGAUAGCGCCAACCUCCUCAACCUCCAUUGCAUCCCACCACAUGAUGAUGCCUGAAGAGCCUUGGUUUUUUG", "polymerase ribozyme fitness (log ratio)": -4.63}, {"variant": "GACCAAUCUGCCCUCAGAGCUCGAGAACAUCUUCGUAUGCAGAGGAGGCAGGCUUCGGUGGCGCGAUAGCGCCAACGUCCUCAACCUCCAAUGCAUCCCACCACAUGAUGAUGCCUGAAGAGCCAUGGUUUUUUG", "polymerase ribozyme fitness (log ratio)": -1.4}, {"variant": "GACCAAUCUGCCCUCAGAGCUCGAGAACAUCUUCGUAUGCAGAGGAGGCAGGCUUCGGUGGCGCGAUAGCGCCAACAUCCUCAACCUCCAAUGCAUCCCACCACAUGAUGAUUCCUGAAGAGCCUUGGUUUUUUG", "polymerase ribozyme fitness (log ratio)": -3.33}, {"variant": "GACCAAUCUGCCCUCAGAGCUCGAGAACAUCUUCGGCUGCAGAGGAGGCAGGGUUCGGUGGAGCGAUAGCGCCAACGUCCUCAACCUCCAAUGCAUCCCACCACAUGAUGAUGCCUGAAGAGCCUUGGUUUUUUG", "polymerase ribozyme fitness (log ratio)": -1.57}, {"variant": "GACCAAUCUGCCCUCAGAGCUCGAGAACAUCUUCGUAUGCAGAGGAGGCAGGCUUCGGUGUCGCGAUAGCGCCAACGUCCUCAACCUCCAAUGCAUCCCACCACAUGAUGAUGCCUGAAGAGCCUUGGUUUUUUG", "polymerase ribozyme fitness (log ratio)": -0.625}, {"variant": "GACCAAUCUGCCCUCAGAGCUCGAGAACAUCUUCGGCUGAAGAGGAGGCAGACUUCGGUGCCGCGAUAGCGCCAACGUCCUCAACCUCCAAUGCAUCCCACCACAUGAUGCUGCCUGAAGAGCCUUCGUUUUUUG", "polymerase ribozyme fitness (log ratio)": -5.24}, {"variant": "GACCAAUCUGCCCUCAGAGCUCGAGAACAUCUUCGUAUGCAGAGGAGGCAGGCUUCGGUGGCCCGAUAGCGCCAAGGUCCUCAACCUCCAAUGCAUCCCACCACAUGAUGAUGCCUAAAGAGCCUUGGUUUUUUG", "polymerase ribozyme fitness (log ratio)": -5.18}, {"variant": "GACCAAUCUGCCCUCAGAGCUCGAGAACAUCUUCGGCUGCAGAGGAGGAAGGCUUCGGUGGCGCGAUAGCGCCAAGGUCCUCAACCUCCAAUGCAUCCCACCACAUGAUGAUGCCUAAAGAGGCAUGGUUUUUUG", "polymerase ribozyme fitness (log ratio)": -1.24}, {"variant": "GACCAAUCUGCCCUCAGAGCUCGAGAACAUCUUCGUAUGCAGAGGAGGCAGGCUUCGGCGGCGCGAUAGCGCCAACGCCCUCAACCUCCAAUGCAUCCCAUCACAUGAUGAUGCCUGAAGAGACUUGGUUUUUUG", "polymerase ribozyme fitness (log ratio)": -1.25}, {"variant": "GACCAAUCUGCCCUCAGAGCUCGAGAACAUCUUCGUAUGCAGAGGAGGCAGGCUUCGGUGGCGCGAUAGCGCCAACGCCCUCAACCUCCAAUGCAUCCCACCACAUGAUGAUGCCUGAAGAGCCUUGGUUUUUUG", "polymerase ribozyme fitness (log ratio)": -1.61}, {"variant": "GACCAAUCUGCCCUCAGAGCUCGAGAACAUCUUCGUAUGCAGAGGAGGCAGGCUUCGGUGGCGCGAUAGCGCCAACGUCCUCAACCUCCAAUGCAUCCCACCACAUGAUCAUGCCUGAAGAGCCUUGGUUUUUUG", "polymerase ribozyme fitness (log ratio)": -4.93}, {"variant": "GACCAAUCUGCCCUCAGAGCUCGAGAACAUCUUCGGCUGCAGAGGGGGAAGGCUUCGGUGGCGCGAUAGCGACAACGUCCUCAACCUCCAAUGCAUCCCACCACAUGAUGAUGCCUGAAGAGCCUUGGUUUUUUG", "polymerase ribozyme fitness (log ratio)": -0.663}, {"variant": "GACCAAUCUGCCCUCAGAGCUCGAGAACAUCUUCGUAUGCAGAGGAGGCAGGCUUCGGUGGCGCGAUAGCACCAACGUCCUCAACCUCCAAUGCAUCCCACCACAUGAUGAUGCCUGAAGAGCCUUGGUUUUUUG", "polymerase ribozyme fitness (log ratio)": -1.86}, {"variant": "GACCAAUCUGCCCUCAGAGCUCGAGAACAUCUUCGUAUGCAGAGGAGGCAGGCUUCGGUGGCGCGAUAACGCCAACGUCCACAACCUCCAAUGCAUCCCACCACAUGAUGAUGCCUGAAGAGCCUUGGUUUUUUG", "polymerase ribozyme fitness (log ratio)": -3.96}, {"variant": "GACCAAUCUGCCCUCAGAGCUCGAGAACAUCUUCGUAUGCAGAGGAGGCAGGCUUCGGUGGCGCGAUAGCACCAACGUCCUCAACCUCCAAUGCAUCCCACCACAUGAUGAUGCCUGAAUAGCCUUGGUUUUUUG", "polymerase ribozyme fitness (log ratio)": -1.04}, {"variant": "GACCAAUCUGCCCUCAGAGCUCGAGAACAUCUUCGGCUGCAGAGGAGGCAGGCUUCGGUGGCGCGAUGGCGCCAACGCCCUUAACCUCCAAUGCAUCCCACCACAUGAUGAUGCCUGAAGAGCCUUGGUUUUGUG", "polymerase ribozyme fitness (log ratio)": -3.87}]}]}
